The source of these data is article PMC6554336, “C3-Glomerulopathy Autoantibodies Mediate Distinct Effects on Complement C3- and C5-Convertases” (Frontiers in Immunology, 2019).

This assay deals with T1, C3b (UniProt P01024 23-667; P01024 749-1663).
T1 construct: Coated on the microtiter plate at 5 ug/ml; source: bought: CompTech
Kind of assay: ELISA; C3-convertase assembled on coated C3b in the presence of patient IgGs for 45 min, then Factor H (20 ug/ml) added, 37°C; convertase-bound Bb detected at 15, 30 or 45 min with Factor B polyclonal antiserum, OD 450 nm. To be noted: both partners purified.

T1 sequence (P01024 23-667, chain 1 of 2): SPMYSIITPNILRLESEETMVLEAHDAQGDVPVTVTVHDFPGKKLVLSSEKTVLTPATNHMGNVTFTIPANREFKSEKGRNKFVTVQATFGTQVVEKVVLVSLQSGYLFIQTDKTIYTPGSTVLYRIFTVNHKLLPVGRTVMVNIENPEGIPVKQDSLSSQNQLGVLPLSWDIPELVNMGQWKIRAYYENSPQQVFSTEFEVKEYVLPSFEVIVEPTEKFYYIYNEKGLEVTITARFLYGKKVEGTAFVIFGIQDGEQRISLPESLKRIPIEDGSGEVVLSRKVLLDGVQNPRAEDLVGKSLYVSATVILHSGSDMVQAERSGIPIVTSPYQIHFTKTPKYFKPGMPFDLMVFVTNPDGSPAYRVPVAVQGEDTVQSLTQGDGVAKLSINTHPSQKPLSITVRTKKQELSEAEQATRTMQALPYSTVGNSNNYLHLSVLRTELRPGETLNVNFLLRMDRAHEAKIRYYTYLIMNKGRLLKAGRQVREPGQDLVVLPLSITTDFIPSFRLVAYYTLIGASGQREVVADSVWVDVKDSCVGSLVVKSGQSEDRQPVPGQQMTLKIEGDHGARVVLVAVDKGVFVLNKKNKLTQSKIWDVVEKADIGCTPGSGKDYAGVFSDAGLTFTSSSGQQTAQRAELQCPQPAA
T1 sequence (P01024 749-1663, chain 2 of 2): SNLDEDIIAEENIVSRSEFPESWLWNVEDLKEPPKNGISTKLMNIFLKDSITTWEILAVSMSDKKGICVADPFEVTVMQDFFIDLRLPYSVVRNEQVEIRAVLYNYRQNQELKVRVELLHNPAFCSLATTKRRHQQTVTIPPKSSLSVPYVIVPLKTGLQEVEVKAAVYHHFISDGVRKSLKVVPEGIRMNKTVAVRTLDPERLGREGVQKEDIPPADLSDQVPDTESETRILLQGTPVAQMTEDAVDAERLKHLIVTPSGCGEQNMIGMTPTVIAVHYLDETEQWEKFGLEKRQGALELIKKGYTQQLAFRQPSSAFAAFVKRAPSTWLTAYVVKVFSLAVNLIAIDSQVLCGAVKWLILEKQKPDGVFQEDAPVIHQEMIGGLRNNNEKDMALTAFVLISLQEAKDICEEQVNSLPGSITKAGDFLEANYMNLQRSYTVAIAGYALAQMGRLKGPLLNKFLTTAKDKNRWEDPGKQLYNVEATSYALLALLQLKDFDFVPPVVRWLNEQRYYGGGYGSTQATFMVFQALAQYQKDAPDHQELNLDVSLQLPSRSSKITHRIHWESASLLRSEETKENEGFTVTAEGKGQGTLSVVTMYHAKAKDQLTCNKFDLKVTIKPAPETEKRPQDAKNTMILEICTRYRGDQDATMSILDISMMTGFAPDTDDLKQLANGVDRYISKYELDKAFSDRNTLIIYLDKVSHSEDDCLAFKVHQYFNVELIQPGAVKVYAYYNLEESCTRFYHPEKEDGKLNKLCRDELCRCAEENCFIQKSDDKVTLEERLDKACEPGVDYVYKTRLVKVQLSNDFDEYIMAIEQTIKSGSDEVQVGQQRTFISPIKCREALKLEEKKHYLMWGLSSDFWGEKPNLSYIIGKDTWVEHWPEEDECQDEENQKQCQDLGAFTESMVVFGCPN

B1: Factor H (natural protein, UniProt P08603 19-1231, looked up)
chain: EDCNELPPRRNTEILTGSWSDQTYPEGTQAIYKCRPGYRSLGNVIMVCRKGEWVALNPLRKCQKRPCGHPGDTPFGTFTLTGGNVFEYGVKAVYTCNEGYQLLGEINYRECDTDGWTNDIPICEVVKCLPVTAPENGKIVSSAMEPDREYHFGQAVRFVCNSGYKIEGDEEMHCSDDGFWSKEKPKCVEISCKSPDVINGSPISQKIIYKENERFQYKCNMGYEYSERGDAVCTESGWRPLPSCEEKSCDNPYIPNGDYSPLRIKHRTGDEITYQCRNGFYPATRGNTAKCTSTGWIPAPRCTLKPCDYPDIKHGGLYHENMRRPYFPVAVGKYYSYYCDEHFETPSGSYWDHIHCTQDGWSPAVPCLRKCYFPYLENGYNQNYGRKFVQGKSIDVACHPGYALPKAQTTVTCMENGWSPTPRCIRVKTCSKSSIDIENGFISESQYTYALKEKAKYQCKLGYVTADGETSGSITCGKDGWSAQPTCIKSCDIPVFMNARTKNDFTWFKLNDTLDYECHDGYESNTGSTTGSIVCGYNGWSDLPICYERECELPKIDVHLVPDRKKDQYKVGEVLKFSCKPGFTIVGPNSVQCYHFGLSPDLPICKEQVQSCGPPPELLNGNVKEKTKEEYGHSEVVEYYCNPRFLMKGPNKIQCVDGEWTTLPVCIVEESTCGDIPELEHGWAQLSSPPYYYGDSVEFNCSESFTMIGHRSITCIHGVWTQLPQCVAIDKLKKCKSSNLIILEEHLKNKKEFDHNSNIRYRCRGKEGWIHTVCINGRWDPEVNCSMAQIQLCPPPPQIPNSHNMTTTLNYRDGEKVSVLCQENYLIQEGEEITCKDGRWQSIPLCVEKIPCSQPPQIEHGTINSSRSSQESYAHGTKLSYTCEGGFRISEENETTCYMGKWSSPPQCEGLPCKSPPEISHGVVAHMSDSYQYGEEVTYKCFEGFGIDGPAIAKCLGEKWSHPPSCIKTDCLSLPSFENAIPMGEKKDVYKAGEQVTYTCATYYKMDGASNVTCINSRWTGRPTCRDTSCVNPPTVQNAYIVSRQMSKYPSGERVRYQCRSPYEMFGDEEVMCLNGNWTEPPQCKDSTGKCGPPPPIDNGDITSFPLSVYAPASSVEYQCQNLYQLEGNKRITCRNGQWSEPPKCLHPCVISREIMENYNIALRWTAKQKLYSRTGESVEFVCKRGYRLSSRSHTLRTTCWDGKLEYPTCAKR
notes: complement Factor H; Used at 20 ug/ml; source: bought: CompTech
Regarding B1, the binding result is listed as “binds”.
